Source: patent publication US20140370026A1

Target: CD46 (UniProt P15529)
Assay: cell-based or functional assay

Sequence of CD46 (P15529 35-392 limits assumed): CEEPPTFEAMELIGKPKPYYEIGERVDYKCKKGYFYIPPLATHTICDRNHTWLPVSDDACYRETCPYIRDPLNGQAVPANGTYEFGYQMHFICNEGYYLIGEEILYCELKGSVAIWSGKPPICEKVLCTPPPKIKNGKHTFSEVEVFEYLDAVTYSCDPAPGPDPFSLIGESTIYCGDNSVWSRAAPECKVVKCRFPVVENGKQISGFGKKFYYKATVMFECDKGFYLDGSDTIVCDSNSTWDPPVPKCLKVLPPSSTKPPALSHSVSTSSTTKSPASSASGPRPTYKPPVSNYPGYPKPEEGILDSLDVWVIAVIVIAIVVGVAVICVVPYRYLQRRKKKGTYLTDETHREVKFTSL

## anti-CD46 antibody J4.48 (Chemicon International)
  inhibition of human CMV (BADrUL131) infectivity of ARPE-19 epithelial cells (IE1 immunofluorescence): 77%
